Test results taken from the Human Domainome abundance scans (Beltran et al. 2025).
± gives the uncertainty stated by the source.

B1: Nuclear receptor subfamily 1 group D member 2, residues 103 to 171; numbered along this chain, Q14995 (parent)
chain: CKVCGDVASGFHYGVHACEGCKGFFRRSIQQNIQYKKCLKNENCSIMRMNRNRCQQCRFKKCLSVGMSR
B2: Zinc finger protein ZIC 2, residues 250 to 295; numbered along this chain, O95409 (parent)
chain: QCIKQELICKWIDPEQLSNPKKSCNKTFSTMHELVTHVSVEHVGGP

Variants of: B1
Assay: abundance fitness (aPCA) (normalised: wild type 0, dead -1); higher = more abundant; growth selection in yeast, the domain comes from the species named
Conditions: Homo sapiens

Variant	abundance fitness
CDVCGDVASGFHYGVHACEGCKGFFRRSIQQNIQYKKCLKNENCSIMRMNRNRCQQCRFKKCLSVGMSR [K2D]	-0.482 ± 0.22
CIVCGDVASGFHYGVHACEGCKGFFRRSIQQNIQYKKCLKNENCSIMRMNRNRCQQCRFKKCLSVGMSR [K2I]	-0.367 ± 0.16
CEVCGDVASGFHYGVHACEGCKGFFRRSIQQNIQYKKCLKNENCSIMRMNRNRCQQCRFKKCLSVGMSR [K2E]	-0.174 ± 0.14
CLVCGDVASGFHYGVHACEGCKGFFRRSIQQNIQYKKCLKNENCSIMRMNRNRCQQCRFKKCLSVGMSR [K2L]	-0.491 ± 0.12
CAVCGDVASGFHYGVHACEGCKGFFRRSIQQNIQYKKCLKNENCSIMRMNRNRCQQCRFKKCLSVGMSR [K2A]	0.016 ± 0.092
CCVCGDVASGFHYGVHACEGCKGFFRRSIQQNIQYKKCLKNENCSIMRMNRNRCQQCRFKKCLSVGMSR [K2C]	-0.578 ± 0.23
CGVCGDVASGFHYGVHACEGCKGFFRRSIQQNIQYKKCLKNENCSIMRMNRNRCQQCRFKKCLSVGMSR [K2G]	-0.623 ± 0.12
CFVCGDVASGFHYGVHACEGCKGFFRRSIQQNIQYKKCLKNENCSIMRMNRNRCQQCRFKKCLSVGMSR [K2F]	-0.53 ± 0.24
EKVCGDVASGFHYGVHACEGCKGFFRRSIQQNIQYKKCLKNENCSIMRMNRNRCQQCRFKKCLSVGMSR [C1E]	-0.613 ± 0.48
GKVCGDVASGFHYGVHACEGCKGFFRRSIQQNIQYKKCLKNENCSIMRMNRNRCQQCRFKKCLSVGMSR [C1G]	-0.939 ± 0.26
FKVCGDVASGFHYGVHACEGCKGFFRRSIQQNIQYKKCLKNENCSIMRMNRNRCQQCRFKKCLSVGMSR [C1F]	-0.451 ± 0.32

Variants of: B2
Assay: as above
Conditions: Homo sapiens

Variant	abundance fitness
QCIKQELICKWIDPEQLQNPKKSCNKTFSTMHELVTHVSVEHVGGP [S18Q]	-0.36 ± 0.1
QCIKQELICKWIDPEQLRNPKKSCNKTFSTMHELVTHVSVEHVGGP [S18R]	-0.198 ± 0.085
QCIKQELICKWIDPEQLTNPKKSCNKTFSTMHELVTHVSVEHVGGP [S18T]	0.118 ± 0.099
QCIKQELICKWIDPEQLCNPKKSCNKTFSTMHELVTHVSVEHVGGP [S18C]	-0.06 ± 0.1
QCIKQELICKWIDPEQLSNPKKSCNKTFSTMHELVTHVSVEAVGGP [H42A]	-0.689 ± 0.096
QCIKQELICKWIDPEQLSNPKKSCNKTFSTMHELVTHVSVELVGGP [H42L]	-0.975 ± 0.098
QCIKQELICKWIDPEQLSNPKKSCNKTFSTVHELVTHVSVEHVGGP [M31V]	-0.363 ± 0.086
QCIKQELICKWIDPEQLSNPKKSCNKTFSTTHELVTHVSVEHVGGP [M31T]	0.042 ± 0.099
QCIKQELICKWIDPEQLSNPKKSCNKTFSTWHELVTHVSVEHVGGP [M31W]	-0.602 ± 0.096
QCIKQELICKWIDPEQLSNPKKSCNKTFSTMHELVTHVSVEHVGKP [G45K]	-0.134 ± 0.12
QCIKQELICKWIDPEQLSNPKKSPNKTFSTMHELVTHVSVEHVGGP [C24P]	-0.889 ± 0.13
QCIKQELICKWIDPEQLSNPKKSHNKTFSTMHELVTHVSVEHVGGP [C24H]	-0.698 ± 0.16
QCIKQELICKWIDPEQLSNPKKSFNKTFSTMHELVTHVSVEHVGGP [C24F]	-1.05 ± 0.13
QCIKQELICKWIDPEQLSNPKKSCNKTFSTMHELVTHVSVEHVGGF [P46F]	-0.736 ± 0.36
QCIKQELICKWIDPEQLSNPKKSCNKTFSTMHELVTHVSVEHVGGR [P46R]	-0.231 ± 0.17
QCIKQELICKWIDPEQLSNPKKSCNKTFSTMHELVTHVSVEHVGGH [P46H]	0.193 ± 0.26
QCIKQELICKWIDPEQLSNPKKSCNKTFSTMVELVTHVSVEHVGGP [H32V]	-0.196 ± 0.087
QCIKQELICKWIDPEQLSNPKKSCNKTFSTMGELVTHVSVEHVGGP [H32G]	-0.044 ± 0.086
QCIKQELICKWIDPEQLSNPKKSCNKTFSTMYELVTHVSVEHVGGP [H32Y]	-0.573 ± 0.12
QCIKQELICKWIDPEQLSNPKKSCNKTFSTMNELVTHVSVEHVGGP [H32N]	0.275 ± 0.11
QCIKQELICKWIDPEQLSNPKKSCNKTFSTMHELVTHVSYEHVGGP [V40Y]	-0.275 ± 0.12

Variant	abundance fitness
QCIKQELICKWIDPEQLSNPKKSCNKTFSTMHELVTHVSGEHVGGP [V40G]	0.05 ± 0.084
QCIKQELICKWIDPEQLSNPKKSCNKTFSTMHELVTHVRVEHVGGP [S39R]	0.056 ± 0.087
QCIKQELICKWIDAEQLSNPKKSCNKTFSTMHELVTHVSVEHVGGP [P14A]	-0.316 ± 0.094
QCIKQELICKWIDSEQLSNPKKSCNKTFSTMHELVTHVSVEHVGGP [P14S]	-0.28 ± 0.092
QCIKQELICKWIDIEQLSNPKKSCNKTFSTMHELVTHVSVEHVGGP [P14I]	-0.975 ± 0.2
QCIKQELICKWIDLEQLSNPKKSCNKTFSTMHELVTHVSVEHVGGP [P14L]	-0.434 ± 0.09
QCIKQELICKWIDPEALSNPKKSCNKTFSTMHELVTHVSVEHVGGP [Q16A]	-0.144 ± 0.091
QCIKQELICKWIDPETLSNPKKSCNKTFSTMHELVTHVSVEHVGGP [Q16T]	-0.051 ± 0.1
QCIKQELICKWIDPEDLSNPKKSCNKTFSTMHELVTHVSVEHVGGP [Q16D]	-0.074 ± 0.11
QCIKQEFICKWIDPEQLSNPKKSCNKTFSTMHELVTHVSVEHVGGP [L7F]	-0.322 ± 0.12
QCIKQEGICKWIDPEQLSNPKKSCNKTFSTMHELVTHVSVEHVGGP [L7G]	-0.425 ± 0.088
QCIKQELICKWIDPEQSSNPKKSCNKTFSTMHELVTHVSVEHVGGP [L17S]	-0.111 ± 0.09
QCIKQELICKWIDPEQGSNPKKSCNKTFSTMHELVTHVSVEHVGGP [L17G]	-0.363 ± 0.086
QCIKQELICKWIDPEQNSNPKKSCNKTFSTMHELVTHVSVEHVGGP [L17N]	0.124 ± 0.13
QCIKQELICKWIDPEQLSNCKKSCNKTFSTMHELVTHVSVEHVGGP [P20C]	-0.832 ± 0.11
QCIKQELICKWIDPEQLSNVKKSCNKTFSTMHELVTHVSVEHVGGP [P20V]	-0.111 ± 0.089
QCIKQELICKWIDPEQLSNPKKSCNKTFSTMHELVTHVSVEHVMGP [G44M]	-0.372 ± 0.1
QCIKQELICKWIDPEQLSNPKKSCNKTFSTMHELVTHVSVEHVRGP [G44R]	0.057 ± 0.086
QCIKQELICKWIDPEQLSNPKKSCNKTFSTMHELVTHVSVEHVQGP [G44Q]	-0.267 ± 0.13
QCIKQELICKWIDPEQLSNPKKSCNKDFSTMHELVTHVSVEHVGGP [T27D]	0.072 ± 0.11
QCIKQELICKWIDPEQLSNPKKSCNKGFSTMHELVTHVSVEHVGGP [T27G]	0.104 ± 0.083
